Usually Kd stands for the equilibrium constant for the complex coming apart. A high value points to lower affinity. As usually defined, the koff is the rate constant with which the complex falls apart. The low end stands for a long-lived complex, the high end for a short-lived complex.

For experiment [1], the target named is T1, human DKK1 (human, UniProt O94907 32-266).
T1 construct: also called huDKK1; hDKK1
T1 sequence: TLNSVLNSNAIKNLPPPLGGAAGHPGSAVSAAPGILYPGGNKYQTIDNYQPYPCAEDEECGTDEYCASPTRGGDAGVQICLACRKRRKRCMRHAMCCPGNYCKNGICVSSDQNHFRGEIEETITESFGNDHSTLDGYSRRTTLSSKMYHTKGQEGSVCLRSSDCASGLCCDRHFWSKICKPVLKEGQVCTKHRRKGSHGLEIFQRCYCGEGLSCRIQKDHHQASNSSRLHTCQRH
The experiment is described as follows: KinExA 3000 equilibrium binding in solution. As to the method: (§1) Accordingly, the affinity of several of these antibodies to DKK1 was further assessed by an equilibrium binding analysis using the more sensitive KinExAtm 3000. For these measurements, Reacti-Gel 6× beads (Pierce, Rockford, Ill.) were pre-coated with human, cynomologous or mouse DKK1 and blocked with BSA. One hundred pM, 300 pM, or 1000 pM of the antibody was mixed with various concentrations of human, mouse or cyno DKK1, ranging in concentration from 1 pM to 50 nM, and equilibrated at room temperature for 8 hours. The mixtures were then passed over the DKK1-coated beads. The amount of bead-bound anti-DKK1 antibody was quantified using goat anti-human-IgG antibody labeled with a fluorescent tag (Cy5; Jackson Immuno Research, West Grove, Pa.). The amount of fluorescent signal measured was proportional to the concentration of free anti-DKK1 antibody in each reaction mixture at equilibrium. The dissociation equilibrium constant (Kd) was obtained from nonlinear regression of the competition curves using a dual-curve one-site homogeneous binding model using the KinExA software.

The target in experiment [2] is T1, human DKK1. The experiment is described as follows: BiaCore 2000. In general terms: In SPR one partner is held on a chip, and binding of the other changes the refractive index at the surface.
Source text: BiaCore allowed us to determine the kd of the selected antibodies.
The target of experiment [3] is T1, human DKK1. Put plainly: cell-based or functional assay.
For the next experiment, the target named is T2, mouse DKK1 (mouse, UniProt O54908 32-272).
T2 construct: also called murine DKK1
T2 sequence: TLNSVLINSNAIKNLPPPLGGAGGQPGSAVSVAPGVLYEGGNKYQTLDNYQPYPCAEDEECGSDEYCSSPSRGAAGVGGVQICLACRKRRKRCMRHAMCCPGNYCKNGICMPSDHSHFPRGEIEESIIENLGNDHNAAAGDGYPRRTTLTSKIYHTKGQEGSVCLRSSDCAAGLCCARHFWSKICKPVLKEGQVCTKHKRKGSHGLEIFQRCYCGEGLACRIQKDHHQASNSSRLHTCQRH
Put plainly: KinExA 3000 equilibrium binding in solution. As to the method:
as §1

The target in another experiment is T3, huDkk4 (human, UniProt Q9UBT3 19-224, limits assumed).
T3 sequence (looked up): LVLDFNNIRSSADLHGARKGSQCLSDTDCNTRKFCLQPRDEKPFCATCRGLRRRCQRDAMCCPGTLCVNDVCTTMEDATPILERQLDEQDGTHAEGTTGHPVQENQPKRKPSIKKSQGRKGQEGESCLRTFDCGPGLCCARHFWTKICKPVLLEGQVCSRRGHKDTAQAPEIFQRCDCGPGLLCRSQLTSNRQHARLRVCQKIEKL
The experiment is described as follows: BiaCore.

The target of another experiment is T4, cynomologous DKK1 (cynomolgus monkey, UniProt O94907 32-266 (human entry), limits assumed).
T4 construct: also called cyno DKK1
T4 chain: T1 sequence with H114N, T150S, S166T, D171A
Put plainly: KinExA 3000 equilibrium binding in solution. As to the method:
as §1
(Kinetic exclusion samples the free partner from a solution-phase mixture.)

Changes are numbered by the printed parent chain.

B1: 6.147.4 (antibody, V domains shown)
VH: QVQLVESGGGVVQPGRSLRLSCAASGFTFSRYDMHWVRQAPGKGLEWVAIIFYDGSNKYYADPVKGRFTISRDNSKNTLYLQMNSLRAEDTAVYYCATLAAAFDYWGQGTLVTVSS
VL: YVLTQPPSVSVAPGQTARITCGGNNIGSKSVHWYQQKPGQAPVLVVYDDSDRPSEIPERFSGSNSGNTATLTISRVEAGDEADYYCQVWDSSSDHVVFGGGTRLTVL
notes: Fully human hybridoma IgG, lambda (Vl)
For B1, binding in the experiment with human DKK1 [1] was put at a Kd of 0.125 nM. In addition, the koff with human DKK1 [2] was 0.000251 s⁻¹. Further, in the experiment with human DKK1 [3], the “ST2 EC50” value was determined as 2.57 nM and the “TCF EC50” value was found to be 3.95 nM.

B2: 5.80.1 (antibody, V domains shown)
VH: EVQLVQSGAEVKKPGESLKISCKGSGYSFTSYWIGWVRQMPGKGLEWMGIIYPGDSDTRYSPSFQGQVTISADKSISTAYLQWSSLTASDTAMYYCARQGESFDYWGQGTLVTVSS
VL: QSVLTQPPSVSGAPGQRVTISCTGSSSNIGADYDVHWYQQLPGTAPKLLIYDYSNRPSGVPDRFSGSKSGTSASLAITGLQAEDEADYYCQSYDNSLSGYVVFGGGTKLTVL
notes: as for B1
For the molecule B2, the Kd came out at 0.025 nM with mouse DKK1 and 0.06 nM with human DKK1 [1]. This molecule also had a koff in the experiment with human DKK1 [2] of less than 2e-05 s⁻¹. For the same molecule, in the experiment with human DKK1 [3], the “ST2 EC50” value was determined as 5.03 nM. Further, in the experiment with human DKK1 [3], the “TCF EC50” value worked out at 3.22 nM.

B3: 5.77.1 (antibody, V domains shown)
VH: QVQLVQSGAEVKKPGASVKVSCKASGYTFTSYDINWVRQATGQGLEWMGWMNLNSDNTGYAQKFQGRVTMTRNTSISTAYMELSSLRSEDTAVYYCASIAARRDYNYYGMDVWGQGTKVTVSS
VL: QSPSVSVAPGQTARITCGGNNIGSKSVHWYQQKPGQAPVLVVYDDSDRPSGIPERFSGSNSGNTATLTISRVEAGDEADYYCQVWDSSSDHWVFGGGTKLTVL
notes: as for B1
Molecule B3 yielded a Kd with mouse DKK1 of 0.14 nM. Moreover, the Kd with human DKK1 [1] turned out to be 0.008 nM. The molecule further displayed an off-rate (koff) with human DKK1 [2] of less than 2e-05 s⁻¹. In the experiment with human DKK1 [3], the “ST2 EC50” value amounted to 6.23 nM and the “TCF EC50” value is 2.14 nM.

B4: 2.4.1 (antibody, V domains shown)
VH: QVQLMQSGAEVKKPGASVKVSCKASGYTFTSYGISWVRQAPGQGLEWMGWISADNGHTNYAQKLQGRVTMTTDTSTSTAYMELRSLRSDDTAVYYCARDGELLNYYYYYGMDVWGQGTTVTVSS
VL: DIQMTQSPSSLSASVGDRVTITCRASQGIRDDLGWFQQKPGKAPKRLIYAASSLQSGVPSRFSGSGSGTEFTLTISSLQPEDFATYYCLQHNSYPCSFGQGTKLEFK
notes: Fully human hybridoma IgG, kappa (Vk)
In the experiment with human DKK1 [2], B4 returned an off-rate (koff) of 0.0006 s⁻¹. For the same molecule, in the experiment with human DKK1 [3], the “ST2 EC50” value was determined as 17.2 nM and the “TCF EC50” value worked out at 38.6 nM.

B5: 5.65.1 (antibody, V domains shown)
VH: EVQLLESGGGLVQPGGSLRLSCAASGFTSGNYAMSWVRQAPGKGLEWVSAISGGGGTTYYADSVEGRFTISRDNSKNTLYLQLNSLRAEDTAVYYCAKEFGELEPRFDYWGQGTLVTVSS
VL: SYVLTQPPSVSVAPGQTARITCGGNNIGSKSVHWYQQKPGQAPVLVVYDDSDRPSGIPERFSGSNSGNTATLTISRVEAGDEADYYCQVLDSSSDHVIFGGGTKLTVL
notes: as for B1
As for B5, in the experiment with human DKK1 [2], the koff stood at 0.000525 s⁻¹. Further, in the experiment with human DKK1 [3], the “ST2 EC50” value stood at 5.87 nM and the “TCF EC50” value worked out at 4.21 nM.

B6: 5.76.1 (antibody, V domains shown)
VH: QLQLQESGPGLVKPSETLSLTCTVSGGSISSSNYYWGWIRQPPGKGLEWIGTIYYSGSTYYTPSLKSRVTISVDTSKNQFSLKLSSVTAADTAVYYCARERAIAVAAIVFFDYWGQGTLVTVSS
VL: B5 VL with K30E, L90W, S94N, I98V
notes: as for B1
For the molecule B6, the koff with human DKK1 [2] was 0.000241 s⁻¹. Moreover, in the experiment with human DKK1 [3], the “ST2 EC50” value worked out at 4.09 nM and the “TCF EC50” value came out at 2.55 nM.

B7: 5.40.1 (antibody, V domains shown)
VH: QVLLQESGPGLVKPSETLSLTCTVSGGSISSYYWSWIRQTPGKGLEWIGYVYYSGSTSYNPSLKSRVTISMYTSKTEFSLKLSSVTAADTAVYYCARYNWNNDLFDYWGQGTLVTVSS
VL: DIRLTQSPSSLSASVGDRVTITCQASQDISNYLNWYQQEPGKAPKLLIYDASNLETGVPSRFSGSGSGTDFTFTISSLQPEDIATYYCQQYDNFPLTFGGGTKVEIK
notes: as for B4
In the experiment with human DKK1 [2], B7 registered an off-rate constant (koff) of 0.000281 s⁻¹. In addition, in the experiment with human DKK1 [3], the “ST2 EC50” value came out at 7.24 nM and the “TCF EC50” value came out at 3.75 nM.

B8: 5.32.1 (antibody, V domains shown)
VH: QVQLVQSGAEVKKPGASVKVSCKASGFTFTSYDISWVRQATGLGLEWMGWMNPSSGYTGYAQNFQGRVTMTWNTSISTVYMELSSLRSEDTAVYYCARTDYYYYGMDVWGRGTTVTVSS
VL: DIQMTQSPSSLSASVGDRVTITCQASQDISKDLNWYQQKPGKAPKLLIYDASNLETGVPSRFSGSGSGTDFTFTISSLQPEDIATYYCQQYDDLPITFGQGTRLEIK
notes: as for B4
B8 registered a dissociation constant (Kd) in the experiment with mouse DKK1 of 0.04 nM. In addition, the Kd with human DKK1 [1] came out at 0.003 nM. For the same molecule, the binding result in the experiment with huDkk4 is given as “no binding”. Moreover, in the experiment with human DKK1 [2], the dissociation rate constant (koff) amounted to 0.000191 s⁻¹. For the same molecule, in the experiment with human DKK1 [3], the “ST2 EC50” value is 3.48 nM and the “TCF EC50” value was 1.01 nM.

B9: 5.78.1 (antibody, V domains shown)
VH: QVQLVESGGGVVQPGRSLRLSCAASGFTFSSYGMHWVRQAPGKGLEWVAVILYDGSDNYYADSVKGRFTISRDNSKNTLYLQMNSLRAEDTAVYYCAREGIAVAGDYYYYGMDVWGQGTTVTVSS
VL: EIVLTQSPGTLSVSPGERATLSCRASQSVSSSYLAWYQQKPGQAPRLLIYGASGRATGIPDRFSGSGSGTDFILTISRLEPEDFAVYYCQQYGSSFTFGGGTKVEIK
notes: as for B4
As for B9, the koff with human DKK1 [2] is 0.000191 s⁻¹. Besides, in the experiment with human DKK1 [3], the “ST2 EC50” value came to 5.7 nM and the “TCF EC50” value is 3.75 nM.

B10: 6.116.6 (antibody, V domains shown)
VH: QVQLVESGGGVVQPGRSLRLSCAASGFTFSGYGMHWVRQAPGKGLEWVAVISYDGNDKYYADSVKGRFTISRDNAKNTLYLQMNSLRAEDTAVYYCARELRVLWGQGTLVTVSS
VL: DIVMTQTPLSLSVTPGQPASISCKSGQSLLHNDGKTYLYWYLQKPGQPPQFLIYEVSNRFSRVPDRFSGSGSGTDFTLKISRVEAEDVGIYYCMQSIQLPWTFGQGTQVEIK
notes: Fully human IgG, kappa (Vk)
Regarding B10, the Kd with cynomologous DKK1 came to 0.04 nM; in the experiment with mouse DKK1 it was 0.04 nM; in the experiment with human DKK1 [1], 0.025 nM. The same molecule displayed an off-rate (koff) with human DKK1 [2] of 2e-05 s⁻¹. Moreover, the “ST2 EC50” value with human DKK1 [3] worked out at 2.77 nM. Moreover, in the experiment with human DKK1 [3], the “TCF EC50” value turned out to be 4.69 nM.

B11: 2.40.1 (antibody, V domains shown)
VH: QVQLVESGGGVVQPGRSLRLSCAASGFTFSSYGMHWVRQAPGKGLGWVAVISYDGSDKYYADSVKGRFTISRDNSKNTLYLQMNSLRAEDTAVYYCARDLVDTAMPWGQGTTVTVSS
VL: B10 VL with T7S, G26S, N32S, F51L, R62G, I90V, L99V, Q108K
notes: as for B4
On to B11, for which the dissociation constant (Kd) with cynomologous DKK1 was found to be 0.22 nM; with mouse DKK1, 0.48 nM; with human DKK1 [1], 0.22 nM. In the experiment with human DKK1 [2], this molecule gave an off-rate (koff) of 6.27e-05 s⁻¹. The “ST2 EC50” value with human DKK1 [3] turned out to be 2.47 nM. Also, the “TCF EC50” value with human DKK1 [3] is 1.28 nM.

B12: 6.139.5 (antibody, V domains shown)
VH: B10 VH with G31S, N56G, K58Q, A75S, A88T, V93E
VL: B10 VL with G16R, G26S, N32S, R62G, I90V, Q108K
notes: as for B4
Molecule B12 showed a Kd with human DKK1 [1] of 0.11 nM. The dissociation rate constant (koff) with human DKK1 [2] is 0.000209 s⁻¹. Further, in the experiment with human DKK1 [3], the “ST2 EC50” value amounted to 3.93 nM and the “TCF EC50” value came out at 9.78 nM.

B13: 6.37.5 (antibody, V domains shown)
VH: B10 VH
VL: B10 VL with N32S, K79R
notes: Fully human IgG, kappa (Vk)
Regarding B13, the equilibrium dissociation constant (Kd) in the experiment with cynomologous DKK1 stood at 0.035 nM; with mouse DKK1 it was 0.05 nM; in the experiment with human DKK1 [1], 0.03 nM. In the experiment with human DKK1 [2], the off-rate (koff) is 4e-05 s⁻¹. Also, the “ST2 EC50” value in the experiment with human DKK1 [3] stood at 3.98 nM. For the same molecule, the “TCF EC50” value in the experiment with human DKK1 [3] is 6.57 nM.
